The values below come from patent publication US20170107289A1 (SORRENTO THERAPEUTICS, published 2017).

“And” between values parts separate entries of the source, which are not always exact repeats. Equal entries are not always repeated.

In general, EC50 (read off the curve) refers to the concentration giving half of the maximal effect. One may read the Kd as the constant that tells how readily two partners part at equilibrium. For orientation: koff means the rate constant with which the complex falls apart. The kon is a measure of how fast the partners come together. What is called EC50 is the concentration at which the effect is half-maximal.

One experiment concerns the target GST protein (UniProt P08515 1-218 = GST). The experiment can be described thus: SPR (Biacore T200), antibody captured on anti-human Fc.
Experiment [1] addresses T1, STAT3 in fixed or permeabilized human tumour cells (U251 glioblastoma); MDA-MB-468 / MDA-MB-435 breast cancer … (human, UniProt P40763 2-770).
T1 construct: whole, on cells; STAT3 is intracellular and the cells were permeabilized; also called cellular antigens; cellular targets
The experiment can be described thus: flow cytometry (HTFC) on permeabilized U251 cells; PE anti-human IgG; MFI. The method, then:
After 45 minutes at room temperature, cells were washed twice and incubated with phycoerythrin (PE) conjugated-anti-human IgG for 20 minutes at room temperature in the dark. Cells were then washed and analyzed by high throughput flow cytometry (HTFC). The results are shown in FIG. 9 for assessment of antibody binding to cellular antigens in U251 cells.
For orientation: In flow cytometry, cells or beads pass a laser one at a time.

For experiment [2], the target named is T2, recombinant human STAT3 proteins (human, UniProt P40763 1-770, limits assumed).
T2 construct: It may be the same STAT3-GST as in the Biacore assay
T2 sequence (P40763 whole entry): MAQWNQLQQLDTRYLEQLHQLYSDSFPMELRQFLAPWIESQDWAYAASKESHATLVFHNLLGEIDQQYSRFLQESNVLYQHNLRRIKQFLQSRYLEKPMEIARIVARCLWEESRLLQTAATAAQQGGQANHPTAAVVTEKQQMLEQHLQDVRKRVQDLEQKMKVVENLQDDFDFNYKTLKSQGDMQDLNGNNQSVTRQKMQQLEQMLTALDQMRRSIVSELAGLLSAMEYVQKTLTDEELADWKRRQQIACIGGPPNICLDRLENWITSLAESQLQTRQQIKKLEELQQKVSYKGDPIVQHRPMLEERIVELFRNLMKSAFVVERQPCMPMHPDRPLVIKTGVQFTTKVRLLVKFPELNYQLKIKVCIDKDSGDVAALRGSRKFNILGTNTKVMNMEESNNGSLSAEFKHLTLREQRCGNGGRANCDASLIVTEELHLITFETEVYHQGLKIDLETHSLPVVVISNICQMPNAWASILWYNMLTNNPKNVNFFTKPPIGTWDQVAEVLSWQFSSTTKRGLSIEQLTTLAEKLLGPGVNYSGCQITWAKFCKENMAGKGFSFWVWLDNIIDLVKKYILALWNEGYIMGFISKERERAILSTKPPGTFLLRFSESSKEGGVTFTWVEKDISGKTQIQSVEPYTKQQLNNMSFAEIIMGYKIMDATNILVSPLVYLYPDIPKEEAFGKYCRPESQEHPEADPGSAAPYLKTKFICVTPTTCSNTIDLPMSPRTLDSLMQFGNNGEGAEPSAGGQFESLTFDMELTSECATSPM
Description: ELISA on recombinant human STAT3 (sheet title 'STAT 3 binding'); Abs 450.

The target in experiment [3] is T3, Recombinant human STAT3-GST (human, UniProt P40763 1-770).
T3 construct: The order of STAT3 and GST follows the printed name 'STAT3-GST' only; not shown: GST (glutathione S-transferase) tag
T3 sequence (P40763 whole entry): as above
The experiment can be described thus: SPR (Biacore T200), antibody captured on anti-human Fc, STAT3-GST as analyte, 1:1 model. Here is the method:
Anti-human Fc antibody (GE, BR-1008-39) was immobilized on a CMS sensor chip to approximately 1000 RU using standard NHS/EDC coupling methodology. Antibodies (approximately 10 ug/ml) were captured for 60 seconds at a flow rate of 10 ul/min Recombinant human STAT3-GST was serially diluted 2-fold into running buffer (HBS-EP+, starting from […]). All measurements were conducted at a flow rate of 30 ul/min Surfaces were regenerated with 3M MgCl₂ (from human antibody kit) for 60 seconds. A 1:1 (Langmuir) binding model was used to fit the data.
(In SPR one partner is held on a chip, and binding of the other changes the refractive index at the surface.)

In experiment [4] the target is T1, STAT3 in fixed or permeabilized human …. Description: flow cytometry on fixed, methanol-permeabilized U251 cells; PE anti-human IgG; MFI (FL-2). The method, then: (§1) Next, the binding of the candidate anti-STAT3 antibodies to cellular targets was tested in cell binding assays using MDA-MB-435 breast cancer cells and U251 cells. The cells were seeded overnight in a 96 well plate, then fixed with PFA and permeabilized with methanol. Cells were incubated with serial dilutions of the anti-STAT3 antibody candidates ST1A5, ST3G12 and ST5G12 for one hour and 30 minutes. Following incubation, the cells were washed and incubated for 30 minutes with phycoerythrin (PE) conjugated anti-human IgG. Fluorescence was measured on an Intellicyte high-throughput flow cytometry analyzer. […] Bevacizumab (Avastin), a monoclonal antibody that inhibits vascular endothelial growth factor A (VEGF-A) was used as a negative control. As shown in FIG. 8A and FIG. 8B, the anti-STAT3 antibodies ST5G12 and ST3G12 both bound STAT3, with ST5G12 being an especially strong binder.

Experiment [5] deals with T2, recombinant human STAT3 proteins. Description: STAT3 binding ELISA, Hu-IgG-FAB detection (sheet title; legend paragraph 22 says 'to human IgG'); OD 450 nm; the EC50 column has no unit, x axis in ng/ml. Background: In an ELISA, binding on a coated surface is turned into a signal by an enzyme label.
The target is the same in experiment [6]. Description: 'Binding ELISA, Hu-IgO Detection' (sheet title, 01052015), Superblock as blocking buffer; coated antigen not named, taken as STAT3 by analogy with the title of FIG. 10; OD 450 nm; the EC50 row has no unit, x axis in ng/ml.
For experiment [7] the target is unchanged. The experiment can be described thus: binding ELISA with Superblock as blocking buffer; coated antigen not named on the sheet (legend paragraph 30 says 'to human IgG'), taken as STAT3 by analogy with the title of FIG. 10; OD 450 nm; the EC50 row has no unit, x axis in ng/ml.
Experiment [8] shares this target. Description: 'Binding ELISA, Hu-IgO Detection' (sheet title), Superblock as blocking buffer; second column of the table taken as the curve labelled 901a; coated antigen not named, taken as STAT3; the EC50 row has no unit, x axis in ng/ml.
Experiment [9] has the same target. The experiment can be described thus: binding ELISA with Superblock as blocking buffer; second column of the table taken as the curve labelled 901a (only two curves, two columns); coated antigen not named on the sheet, taken as STAT3; the EC50 row has no unit, x axis in ng/ml.
Experiment [10] has as its target T1, STAT3 in fixed or permeabilized human …. Description: flow cytometry on fixed, methanol-permeabilized MDA-MB-468 cells (sheet title; legend paragraph 19 says MDA-MB-435); PE anti-human IgG; MFI (FL-2). The method, then: as §1

T1 sequence (P40763 2-770): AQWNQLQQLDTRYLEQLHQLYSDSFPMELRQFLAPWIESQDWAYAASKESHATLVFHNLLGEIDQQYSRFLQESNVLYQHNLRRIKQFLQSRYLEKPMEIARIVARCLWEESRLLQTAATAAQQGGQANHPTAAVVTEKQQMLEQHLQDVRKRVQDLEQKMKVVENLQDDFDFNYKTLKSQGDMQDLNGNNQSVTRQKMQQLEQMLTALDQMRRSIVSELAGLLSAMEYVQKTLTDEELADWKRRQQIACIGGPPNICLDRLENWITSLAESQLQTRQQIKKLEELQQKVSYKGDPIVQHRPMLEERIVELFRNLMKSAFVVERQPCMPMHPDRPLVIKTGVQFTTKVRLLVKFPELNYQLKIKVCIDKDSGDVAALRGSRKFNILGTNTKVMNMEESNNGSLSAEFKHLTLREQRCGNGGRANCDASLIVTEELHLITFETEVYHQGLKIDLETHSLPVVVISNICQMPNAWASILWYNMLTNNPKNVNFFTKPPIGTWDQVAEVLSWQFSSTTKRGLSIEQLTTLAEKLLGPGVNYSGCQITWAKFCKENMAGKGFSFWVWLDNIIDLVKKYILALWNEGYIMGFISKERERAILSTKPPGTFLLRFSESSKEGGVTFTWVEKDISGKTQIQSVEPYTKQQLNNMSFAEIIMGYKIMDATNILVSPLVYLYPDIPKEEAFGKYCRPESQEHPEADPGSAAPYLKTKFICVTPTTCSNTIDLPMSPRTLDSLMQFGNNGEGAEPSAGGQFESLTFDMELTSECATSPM
Chain of GST protein (P08515 whole entry): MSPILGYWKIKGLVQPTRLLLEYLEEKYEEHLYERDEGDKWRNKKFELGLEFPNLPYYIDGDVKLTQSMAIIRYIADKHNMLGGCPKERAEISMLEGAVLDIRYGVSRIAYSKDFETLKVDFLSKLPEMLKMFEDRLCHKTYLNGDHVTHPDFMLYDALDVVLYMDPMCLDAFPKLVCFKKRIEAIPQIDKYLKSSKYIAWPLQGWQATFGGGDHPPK

B1: anti-STAT3 antibody ST3G12 (unmodified) (antibody, V domains shown)
VH: QVQLVQSGAEVKKPGASVKVSCKASGYTFTSYYMHWVRQAPGQGLEWMGIINPSGGSTSYAQKFQGRVTMTRDTSTSTVYMELSSLRSEDTAVYYCARSDYVHSFDIWGQGTMVTVSS
VL: QPVLTQPPSASALLGASIKLTCTLSSEHSTYTVEWYQQRPGRSPQYIMNVKSDGSYNKGDGIPDRFMGSSSGADRYLTFSNLQSDDEAEYHCGESHRIDGQVGVVFGGGTKLTVL
notes: also called naked anti-STAT3 ST3G12 antibody
As for B1, the binding result with GST protein was “no binding”. Further, the “EC50 (read off the curve)” value in experiment [1] was approximately 9 nM; in [2] it was approximately 0.06 µg/mL; in experiment [4] it was approximately 4 nM. In addition, the Kd in [3] was 5.39 nM. Besides, in [3], the koff turned out to be 0.000322 s⁻¹. Further, the kon in [3] stood at 59700 M⁻¹ s⁻¹. Besides, the EC50 was 0.155 µg/mL in experiment [5], 0.0257 µg/mL in experiment [6] and 0.122 µg/mL in experiment [7].

B2: compound 901a (ST3G12 conjugated to the phosphorothioate oligonucleotide, non-fluorescein version) (antibody, V domains shown)
VH: QVQLVQSGAEVKKPGASVKVSCKASGYTFTSYYMHWVRQAPGQGLEWMGIINPSGGSTSYAQKFQGRVTMTRDTSTSTVYMELSSLRSEDTAVYYCARSDYVHSFDIWGQGTMVTVSS
VL: QPVLTQPPSASALLGASIKLTCTLSSEHSTYTVEWYQQRPGRSPQYIMNVKSDGSYNKGDGIPDRFMGSSSGADRYLTFSNLQSDDEAEYHCGESHRIDGQVGVVFGGGTKLTVL
modifications: phosphorothioate oligonucleotide joined to the antibody through a linker; residue(s) and chain of attachment not stated
notes: also called ST3G12-PS
As to B2, the binding result with GST protein is “no binding”. Besides, the “EC50 (read off the curve)” value in [2] was ~0.06 µg/mL and ~0.1 µg/mL. Also, in experiment [3], the Kd was found to be 0.222 nM. In addition, the koff in experiment [3] came to 0.00011 s⁻¹. Besides, the association rate constant (kon) in experiment [3] stood at 494000 M⁻¹ s⁻¹. Further, the EC50 in [5] turned out to be 0.153 µg/mL; in experiment [8], 0.0643 µg/mL; in experiment [9], 0.186 µg/mL.

B3: anti-STAT3 antibody ST1A5 (antibody, V domains shown)
VH: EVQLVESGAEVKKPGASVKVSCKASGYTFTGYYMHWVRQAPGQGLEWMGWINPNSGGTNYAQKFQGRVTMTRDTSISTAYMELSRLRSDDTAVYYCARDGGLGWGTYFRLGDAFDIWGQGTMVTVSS
VL: QSVLTQPPSVSKGLRQTATLTCTGNSNNVGNEGAAWLQQHQGHPPKLLSYRNFNRPSGISERFSASRSGNTASLTITGLQPEDEADYYCSAWDSSLSAWVFGGGTKLTVL
notes: Human antibody; it was detected with anti-human IgG
In the case of B3, the “EC50 (read off the curve)” value is approximately 8 nM in experiment [4] and approximately 6 nM in experiment [10].
